Measurements taken from PMC5967604.

Columns and labels:
[1] = molecular target: OSM-3G444E^Halo (C. elegans) (UniProt P46873); assay: single-molecule colocalisation of differentially labelled proteins
[2] = molecular target: OSM-3^SNAP (C. elegans) (UniProt P46873); assay: as above

Substance “QCC with GFP-tagged IFT-52(OSM-6), G5EDF6 1-472; Q0G838 1-471; G5ED37 1-820; Q8I7G4 1-656” has a colocalisation efficiency [1] of 85% and a colocalisation efficiency [2] of 81%.
